From patent publication US20060183888A1 come the findings set out here.

Substrate in this series: C[C@@H]1CC=N[C@H]1C(=O)NCCCC[C@H](N)C(=O)O
Kind of series: purified protein, by the assay type. The note with it: other: 37° C., pH 7.2.

Experimental: The pyrophosphate exchange reaction was essentially performed following the method of Cole and Schimmel. All reactions were performed in duplicate at 37° C. The 100 to 200 μl reactions contained (unless noted) 0.3 to 1 HM PylSHis6. […] The specific activity of the radiolabel was adjusted from 4 to 10 dpm/pmol). The concentration of protein was 0.3 to 1 μM. At specific times, 25 μl aliquots were removed and quenched in 500 μl of a stop solution containing 1.6% (w/v) activated acid-washed charcoal (Sigma Chemical Co., St. Louis, Mo.), 80 mM sodium tetrapyrophosphate, and 3.5% (v/v) perchloric acid. Samples were filtered through Whatman GF/C glass-fiber filters and then the filter was washed three times with 5 ml of 40 mM sodium tetrasodium pyrophosphate solution containing 1.7% perchloric acid (v/v) and once with 5 ml 100% ethanol. Filters were dried at 80° C. for 5 minutes then placed in 20 ml scintillation vials containing 10 ml of Ultima Gold F scintillation cocktail (PerkinElmer), shaken once, and counted in a liquid scintillation analyzer. Identical reactions without amino acid, ATP, or enzyme were also set up as negative controls in duplicate.

B1: PylS-His6 (Methanosarcina barkeri) (protein)
chain: MDKKPLDVLISATGLWMSRTGTLHKIKHHEVSRSKIYIEMACGDHLVVNNSRSCRTARAFRHHKYRKTCKRCRVSDEDINNFLTRSTESKNSVKVRVVSAPKVKKAMPKSVSRAPKPLENSVSAKASTNTSRSVPSPAKSTPNSSVPASAPAPSLTRSQLDRVEALLSPEDKISLNMAKPFRELEPELVTRRKNDFQRLYTNDREDYLGKLERDITKFFVDRGFLEIKSPILIPAEYVERMGINNDTELSKQIFRVDKNLCLRPMLAPTLYNYLRKLDRILPGPIKIFEVGPCYRKESDGKEHLEEFTMVNFCQMGSGCTRENLEALIKEFLDYLEIDFEIVGDSCMVYGDTLDIMHGDLELSSAVVGPVSLDREWGIDKPWIGAGFGLERLLKVMHGFKNIKRASRSESYYNGISTNL
Take B1: the Michaelis-Menten constant (Km) came out at 53 µM and the kcat is 6 min⁻¹.

One may read the Km as the substrate concentration at which the rate is half of its maximum. By kcat is commonly meant the number of substrate molecules converted per active site and unit of time at saturation.
